{"source": "patent US20210395381A1", "about": "(OSSIANIX, published 2021)", "binders": {"B1": {"name": "Clone 23 (VNAR)", "VNAR": "ARVDQTPQTVTKETGESLTINCVLRDSNCDLSRTYWYRKKSGSTNEESISKGGRYVETVNSGSKSFSLRINDLTVEDSGTYRCNVGGDLCGDQRDVYGGGTAVTVNA", "notes": "VNAR on phage"}, "B2": {"name": "Clone 20 (VNAR)", "VNAR": "ARVDQTPRSVTKETGESLTINCVLRDSNCALPSTYWYRKKSGSTNEESISKGGRYVETVNSGSKSFSLRINDLTVKDSGTYRCNVKWDCRYQCICVSADVYGDGTAVTVNA", "notes": "VNAR on phage"}, "B3": {"name": "Clone 31 (VNAR)", "VNAR": "ARVDQTPQTITKETGESLTINCVLRDSNCALSSTYWYRKKSDSTNEENISKGGRYVETVNSGSKSFSLKINDLTVEDSGTYRCNVQPLFCDLWLDVYGGGTVVTVNA", "notes": "VNAR on phage"}, "B4": {"name": "Clone 16 (VNAR)", "VNAR": "ARVDQTPQTITKETGESLTINCVLRDSNCALSSTYWYRKKSGSTNEENISKGGRYVETVNSGSKSFSLRINDLTVEDSGTYRCKVQSAQGMGLNGCKPGRVDVYGDGTAVTVNA", "notes": "VNAR on phage"}, "B5": {"name": "Clone 17 (VNAR)", "VNAR": "ARVDQTPQTITKETGESLTINCVLRDSNCALSNLYWYRKKSGSTNEESISLGGRYVETVNSGSKSFSLRINDITVEDSGRYRCNVYNFFTYQCRWFQSDVYGDGTAVTVNA", "notes": "VNAR on phage"}, "B6": {"name": "Clone 18 (VNAR)", "VNAR": "ARVDQTPQTITKETGESLTINCVLRDSNCALSSTYWYRKKSDSTNEESISKGGRYVETVNSGSKSFSLRINDLTVEDSGTYRCKVCTGMSCPCLGRRQTDVYGGGTAVTVNA", "notes": "VNAR on phage"}, "B7": {"name": "Clone 24 (VNAR)", "VNAR": "ARVDQTPQTITKETGESLTINCVLRDSNCALPSTYWYRKKSGSTNEESISKGGRYVETVNSGSKSFSLRINDLTVKDSGTYRCKVGPRCMGPNWQSYSCDVYGGGTVVTVNA", "notes": "VNAR on phage"}, "B8": {"name": "Clone 30 (VNAR)", "VNAR": "ARVDQTPQTITKETGESLTINCVLRDSNCALSSTLWYRTKSGSRNEESISKGGRYVETVNSGSKSFSLKINDLTVEDSGTYRCNVWFADYYWFQYDVYGGGTAVTVNA", "notes": "VNAR on phage"}, "B9": {"name": "Clone 28 (VNAR)", "VNAR": "ARVDQTPQTITKETGESLTINCVLRDSICALSSTHWYRKKSGSTNEESISKGGRYVETVNSGSKSFSLRINDLTVEDSGTYRCNVRTAQGTLCGDVSDVYGDGTAVTVNA", "notes": "VNAR on phage"}, "B10": {"name": "Clone 22 (VNAR)", "VNAR": "ARVDQTPQTITKETGESLTINCVLRDSNCALSNLYWYRKKSGSTNEESISLGGRYVETVNSGSKSFSLRINDLTVEDSGTYRCNVQQQSSGTFYDVYGGGTAVTVNA", "notes": "VNAR on phage"}, "B11": {"name": "Clone 5 (VNAR)", "VNAR": "ARVDQTPQTITKETGESLTINCVLRDSNCALSSTLWYRTKSGSRNEESISKGGRYVETVNSGSKSFSLRINDLTVKDSGTYRCNVQQYDCIASFDVYGDGTAVTVNA", "notes": "VNAR on phage"}, "B12": {"name": "Clone 6 (VNAR)", "VNAR": "B11 VNAR with I10V, K76E, Q86C, Q87S, Y88N, D89Y, I91P, A92I, S93K, F94D", "notes": "VNAR on phage"}, "B13": {"name": "Clone 29 (VNAR)", "VNAR": "ARVDQTPQTITKETGESLTINCVLRDSNCALSSTLWYRTKSGSRNEESISKGGRYVETVNSGSKSFSLRINDLTVEDSGTYRCNVQQGCESYNWMVDVYGGGTAVTVNA", "notes": "VNAR on phage"}, "B14": {"name": "Clone 21 (VNAR)", "VNAR": "ARVDQTPRVTKETGESLTINCVLRDNNCALSTTYWYRKKSGSTNEENISKGGRYVETVNSGSKSFSLRINDLTVEDSGTYRCNVYMTACSNDMDVYGGGTVVTVNA", "notes": "VNAR on phage"}, "B15": {"name": "Clone 25 (VNAR)", "VNAR": "ARVDQTPRSVTKETGESLTINCVLRDSICALSSTYWYRKKSGSTNEESISKGGRYVETVNSGSKSFSLKINDLTVEDSGTYRCNVFTEMRGRCWAWGVDVYGDGTAVTVNA", "notes": "VNAR on phage"}, "B16": {"name": "Clone 3 (VNAR)", "VNAR": "ARVDQTPQTITKETGESLTINCVLRDSNCALPSTYWYRKKSGSTNEESISKGGRYVETVNSGSKSFSLRINDLTVKDSGTYRCNVVQEPYSCKGRDDVYGGGTAVTVNA", "notes": "VNAR on phage"}, "B17": {"name": "Clone 26 (VNAR)", "VNAR": "ARVDQTPQTITKETGESLTINCVLRDSNCALSSTLWYRTKSGSRNEESISKGGRYVETVNSGSKSFSLKINDLTVEDSGTYRCNVCMGVTCNHVPDVYGGGTVVTVNA", "notes": "VNAR on phage"}, "B18": {"name": "Clone 15 (VNAR)", "VNAR": "ARVDQTPRSVTKETGESLTINCVLRDASYELGSTCWYRKKSGSTNEESISKGGRYVETVNSGSKSFSLRINDLTVEDGGTYRCGAPRWQMGGQWCDGGTAACRSGMAEVAACGDGTAVTVNA", "notes": "VNAR on phage"}, "B19": {"name": "Clone 4 (VNAR)", "VNAR": "ARVDQTPQTITKETGESLTINCVLRDSNCALPSTYWYRKKSGSTNEESISKGGRYVETVNSGSKSFSLRINDLTVKDSGTYRCKVMSQEVRWQMTCKIVVMDVYGGGTVVTVNA", "notes": "VNAR on phage"}, "B20": {"name": "Clone 7 (VNAR)", "VNAR": "ARVDQTPQTITKETGESLTINCVLRDNNCALSSTLWYRTKSGSRNEESISKGGRYVETVNSGSKSFSLRINDLTVEDSGTYRCNVQSWPPGNGWWCDVYGDGTAVTVNA", "notes": "VNAR on phage"}, "B21": {"name": "Clone 19 (VNAR)", "VNAR": "ARVDQTPQTITKETGESLTINCVLRDSNCALSSTYWYRKKSGSTNEESISKGGRYVETVNSGSKSFSLRINDLTVEDSGTYRCNVGQAQRLRSNVDDVYGGGTVVTVNA", "notes": "VNAR on phage"}, "B22": {"name": "Clone 2 (VNAR)", "VNAR": "ARVDQTPQTITKETGESLTINCVLRDSNCELSSTYWYRKKSDSTNEASISKGGRYVETVNSGSKSFSLKINDLTVEDSGTYRCNVFTSDSYDLGDVYGGGTVVTVNA", "notes": "VNAR on phage"}, "B23": {"name": "Clone 27 (VNAR)", "VNAR": "ARVDQTPRSVTKETGESLTINCVLRDASYALGSTCWYRKKSGSTNEESISKGGRYVETVNSGSKSFSLRINDLTVEDSGTYRCNVSRIGQYLCQARSDVYGDGTAVTVNA", "notes": "VNAR on phage"}}, "note": "Residue numbers refer to the chain shown, from its start."}
{"molecular_target": "T1, recombinant mouse TfR-1 (mouse, UniProt Q62351 89-763)", "T1 construct": "Bought recombinant protein; also called mTfR1", "T1 sequence (Q62351 89-763 limits assumed)": "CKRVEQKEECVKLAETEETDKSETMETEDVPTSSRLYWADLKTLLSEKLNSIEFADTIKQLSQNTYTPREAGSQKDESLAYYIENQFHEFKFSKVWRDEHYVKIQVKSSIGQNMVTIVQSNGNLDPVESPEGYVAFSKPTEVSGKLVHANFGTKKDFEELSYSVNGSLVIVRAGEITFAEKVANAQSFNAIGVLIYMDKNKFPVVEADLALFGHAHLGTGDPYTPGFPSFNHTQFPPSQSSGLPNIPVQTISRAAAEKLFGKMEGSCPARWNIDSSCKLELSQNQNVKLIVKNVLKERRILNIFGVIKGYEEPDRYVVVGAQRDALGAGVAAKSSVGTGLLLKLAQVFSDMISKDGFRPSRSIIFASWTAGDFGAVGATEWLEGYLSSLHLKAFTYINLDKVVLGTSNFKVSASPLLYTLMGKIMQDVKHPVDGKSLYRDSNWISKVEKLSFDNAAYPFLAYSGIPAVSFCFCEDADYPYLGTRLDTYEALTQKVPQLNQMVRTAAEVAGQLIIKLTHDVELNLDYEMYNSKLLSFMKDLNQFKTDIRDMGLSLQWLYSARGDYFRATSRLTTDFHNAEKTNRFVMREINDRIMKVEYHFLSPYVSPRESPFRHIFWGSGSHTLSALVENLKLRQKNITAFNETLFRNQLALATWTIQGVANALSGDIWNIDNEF", "assay": "phage ELISA", "experimental": "(§1) After the third round of selection, instead of pooling bacterial colonies, individual phagemid clones were grown in 1 ml of 2TY medium containing glucose and ampicillin in 96-well blocks and used to rescue the phages. After an overnight culturing, bacteria were spun down and an aliquot of the phage supernatant was sent for Sanger sequencing (Genewiz); VNAR CDR3 sequences were identified using BioEdit (a sequence alignment editor). Another aliquot was blocked with 2.5% milk for phage ELISAs. High-binding ELISA plates (Greiner) were coated with 1 μg/ml of recombinant human or mouse TfR-1. The plates were then blocked with 2.5% milk in PBST. Blocked phages were added to the blocked plates and the VNAR-phage clones binding to the antigens were detected with HRP-labelled anti-M13 coat protein antibodies (Sino Biological), and chromogenic TMB substrate (KLM)"}
{"binder": "B1", "binding result": "binds"}
{"binder": "B2", "binding result": "binds"}
{"binder": "B3", "binding result": "binds"}
{"binder": "B4", "binding result": "binds"}
{"binder": "B5", "binding result": "binds"}
{"binder": "B6", "binding result": "binds"}
{"binder": "B7", "binding result": "binds"}
{"binder": "B8", "binding result": "binds"}
{"binder": "B9", "binding result": "binds"}
{"binder": "B10", "binding result": "binds"}
{"binder": "B11", "binding result": "binds"}
{"binder": "B12", "binding result": "binds"}
{"binder": "B13", "binding result": "binds"}
{"binder": "B14", "binding result": "binds"}
{"binder": "B15", "binding result": "binds"}
{"binder": "B16", "binding result": "binds"}
{"binder": "B17", "binding result": "binds"}
{"binder": "B18", "binding result": "binds"}
{"binder": "B19", "binding result": "binds"}
{"binder": "B20", "binding result": "binds"}
{"binder": "B21", "binding result": "binds"}
{"binder": "B22", "binding result": "binds"}
{"binder": "B23", "binding result": "binds"}
{"molecular_target": "T2, recombinant human TfR-1 (human, UniProt P02786 89-760)", "T2 construct": "extracellular domain; also called hTfR1; human transferrin receptor-1", "T2 sequence (P02786 89-760)": "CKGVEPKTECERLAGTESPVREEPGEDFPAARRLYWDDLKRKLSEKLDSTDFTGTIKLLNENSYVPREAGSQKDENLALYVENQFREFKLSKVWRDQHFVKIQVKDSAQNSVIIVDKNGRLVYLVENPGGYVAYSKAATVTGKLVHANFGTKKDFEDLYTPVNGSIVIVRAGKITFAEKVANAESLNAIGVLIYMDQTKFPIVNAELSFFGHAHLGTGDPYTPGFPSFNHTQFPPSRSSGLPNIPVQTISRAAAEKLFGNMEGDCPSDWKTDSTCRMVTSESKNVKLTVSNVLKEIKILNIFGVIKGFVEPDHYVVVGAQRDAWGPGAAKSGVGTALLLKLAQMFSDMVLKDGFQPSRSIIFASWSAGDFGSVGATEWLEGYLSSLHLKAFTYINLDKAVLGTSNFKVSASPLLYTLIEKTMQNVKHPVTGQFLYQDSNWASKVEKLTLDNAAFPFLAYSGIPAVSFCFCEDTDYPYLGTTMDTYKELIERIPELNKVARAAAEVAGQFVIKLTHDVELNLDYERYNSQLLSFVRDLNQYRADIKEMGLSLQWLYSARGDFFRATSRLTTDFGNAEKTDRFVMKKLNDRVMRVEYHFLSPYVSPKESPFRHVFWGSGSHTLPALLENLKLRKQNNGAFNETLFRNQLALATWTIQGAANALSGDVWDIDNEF", "assay": "phage ELISA", "experimental": "as §1"}
{"binder": "B1", "binding result": "binds"}
{"binder": "B2", "binding result": "binds"}
{"binder": "B3", "binding result": "binds"}
{"binder": "B4", "binding result": "binds"}
{"binder": "B5", "binding result": "binds"}
{"binder": "B6", "binding result": "binds"}
{"binder": "B7", "binding result": "binds"}
{"binder": "B8", "binding result": "binds"}
{"binder": "B9", "binding result": "binds"}
{"binder": "B10", "binding result": "binds"}
{"binder": "B11", "binding result": "binds"}
{"binder": "B12", "binding result": "binds"}
{"binder": "B13", "binding result": "binds"}
{"binder": "B14", "binding result": "binds"}
{"binder": "B15", "binding result": "binds"}
{"binder": "B16", "binding result": "binds"}
{"binder": "B17", "binding result": "binds"}
{"binder": "B18", "binding result": "binds"}
{"binder": "B19", "binding result": "binds"}
{"binder": "B20", "binding result": "binds"}
{"binder": "B21", "binding result": "binds"}
{"binder": "B22", "binding result": "binds"}
{"binder": "B23", "binding result": "binds"}
